Measurements reported in PMC1783898.

Biological target: SARS-CoV main protease, full-length wild type (3CLpro) (SARS-CoV) (UniProt P0C6X7)
Test: AUC

“SARS-CoV main protease, full-length wild type (3CLpro) (from UniProt P0C6X7) (enzyme)” gave a stoichiometry N of 2.
